# Target: SARS-CoV RBD-His8-SpyTag003 (SARS-CoV, UniProt P59594, heterogeneous N-linked glycosylation)
# Assay: ELISA
# Settings: both partners purified
binder,measurement,value
"EY6A (antibody, V domains shown) VH: EVQLVESGGGVVQPGRSLRLSCAASAFTFSSYDMHWVRQAPGKGLEWVAVISYDGSNKYYADSVKGRFTISRDNSKNTLYLQMNSLRAEDTAVYYCAKDGGKLWVYYFDYWGQGTLVTVSS VL: not shown",binding result,binds

# Reference: PMC9240080 (Nature Communications, 2022)
